Assays:
HLA-A*02:01 [1] = test: IEDB peptide-MHC binding, purified MHC/competitive/fluorescence; filed as Kd, often an IC50 or EC50 that approximates it; ≥ and ≤ were set here for values at or beyond the usual limits of such assays; conditions: source organism: Salmonella enterica subsp. enterica serovar Typhi
HLA-B*15:01 [2] = test: as above; conditions: source organism: Salmonella enterica subsp. enterica serovar Typhi
HLA-A*01:01 = test: IEDB peptide-MHC binding, purified MHC/direct/fluorescence; filed as Kd, often an IC50 or EC50 that approximates it; ≥ and ≤ were set here for values at or beyond the usual limits of such assays
HLA-A*02:01 [3] = test: as above; conditions: source organism: West Nile virus
HLA-A*03:01 = test: as above; conditions: source organism: West Nile virus
HLA-A*11:01 = test: as above; conditions: source organism: West Nile virus
HLA-A*31:01 = test: as above; conditions: source organism: West Nile virus
HLA-A*69:01 = test: as above; conditions: source organism: West Nile virus
HLA-B*07:02 = test: as above; conditions: source organism: West Nile virus
HLA-B*15:01 [4] = test: as above; conditions: source organism: West Nile virus
HLA-B*18:01 [5] = test: as above; conditions: source organism: West Nile virus
HLA-B*27:05 = test: as above; conditions: source organism: West Nile virus
HLA-B*40:01 [6] = test: as above; conditions: source organism: West Nile virus
HLA-B*44:02 [7] = test: as above; conditions: source organism: West Nile virus
HLA-B*46:01 = test: as above; conditions: source organism: West Nile virus
HLA-B*48:01 = test: as above
HLA-B*57:01 = test: as above; conditions: source organism: West Nile virus
HLA-B*58:01 = test: as above; conditions: source organism: West Nile virus
HLA-B*39:01 = test: IEDB peptide-MHC binding, purified MHC/competitive/fluorescence; filed as Kd, often an IC50 or EC50 that approximates it; ≥ and ≤ were set here for values at or beyond the usual limits of such assays; conditions: source organism: West Nile virus
HLA-A*29:02 = test: IEDB peptide-MHC binding, purified MHC/direct/fluorescence; filed as Kd, often an IC50 or EC50 that approximates it; ≥ and ≤ were set here for values at or beyond the usual limits of such assays; conditions: source organism: Mycobacterium tuberculosis str. Haarlem
HLA-B*18:01 [8] = test: IEDB peptide-MHC binding, purified MHC/competitive/radioactivity; filed as Kd, often an IC50 or EC50 that approximates it; ≥ and ≤ were set here for values at or beyond the usual limits of such assays
HLA-B*40:01 [9] = test: as above
HLA-B*40:02 = test: as above
HLA-B*44:02 [10] = test: as above
HLA-B*44:03 = test: as above
HLA-B*45:01 = test: as above
[11] = source organism: West Nile virus
[12] = source organism: SARS coronavirus Tor2
[13] = source organism: Mammarenavirus machupoense
[14] = source organism: Mammarenavirus choriomeningitidis
[15] = source organism: Mammarenavirus juninense
[16] = source organism: Mammarenavirus brazilense

KQRCALPSL
Kd (HLA-A*02:01 [1]): 0.796 µM | Kd (HLA-B*15:01 [2]): 0.246 µM

VHREWFMDL
Kd (HLA-A*01:01; [11]): ≥ 20 µM | Kd (HLA-A*02:01 [3]): ≥ 20 µM | Kd (HLA-A*03:01): ≥ 20 µM | Kd (HLA-A*11:01): ≥ 20 µM | Kd (HLA-A*31:01): ≥ 20 µM | Kd (HLA-A*69:01): ≥ 20 µM | Kd (HLA-B*07:02): ≥ 20 µM | Kd (HLA-B*15:01 [4]): ≥ 20 µM | Kd (HLA-B*18:01 [5]): ≥ 20 µM | Kd (HLA-B*27:05): ≥ 20 µM | Kd (HLA-B*40:01 [6]): ≥ 20 µM | Kd (HLA-B*44:02 [7]): ≥ 20 µM | Kd (HLA-B*46:01): ≥ 20 µM | Kd (HLA-B*48:01; [11]): ≥ 20 µM | Kd (HLA-B*57:01): ≥ 20 µM | Kd (HLA-B*58:01): ≥ 20 µM | Kd (HLA-B*39:01): 1.48 µM

LTDSDSPTY
Kd (HLA-A*01:01; source organism: Mycobacterium tuberculosis): 0.025 µM | Kd (HLA-A*29:02): 0.14 µM

NEYRQYLDA
Kd (HLA-B*18:01 [8]; [12]): 2.38 µM | Kd (HLA-B*40:01 [9]; [12]): 1.76 µM | Kd (HLA-B*40:02; [12]): 0.944 µM | Kd (HLA-B*44:02 [10]; [12]): 12.4 µM | Kd (HLA-B*44:03; [12]): 10.9 µM | Kd (HLA-B*45:01; [12]): 0.0988 µM

LEGYAFEHIV
Kd (HLA-B*18:01 [8]; [12]): 1.12 µM | Kd (HLA-B*40:01 [9]; [12]): 17.4 µM | Kd (HLA-B*40:02; [12]): 1.79 µM | Kd (HLA-B*44:02 [10]; [12]): ≥ 51.7 µM | Kd (HLA-B*44:03; [12]): ≥ 28.4 µM | Kd (HLA-B*45:01; [12]): 0.316 µM

RKHGGMLVR
Kd (HLA-B*48:01; source organism: Dengue virus 1 Singapore/S275/1990): ≥ 20 µM

RECYVQRFYL
Kd (HLA-B*18:01 [8]; [13]): 0.518 µM | Kd (HLA-B*40:01 [9]; [13]): 9.01 µM | Kd (HLA-B*40:02; [13]): 0.0053 µM | Kd (HLA-B*44:02 [10]; [13]): 1.64 µM | Kd (HLA-B*44:03; [13]): 1.1 µM | Kd (HLA-B*45:01; [13]): 1.56 µM

MDLLLFSTS
Kd (HLA-B*18:01 [8]; [14]): 4.09 µM | Kd (HLA-B*40:01 [9]; [14]): 7.05 µM | Kd (HLA-B*40:02; [14]): 0.265 µM | Kd (HLA-B*44:02 [10]; [14]): 6.84 µM | Kd (HLA-B*44:03; [14]): 2.68 µM | Kd (HLA-B*45:01; [14]): 1.06 µM

DELGNILSVY
Kd (HLA-B*18:01 [8]; [15]): 0.00898 µM | Kd (HLA-B*40:01 [9]; [15]): ≥ 69.5 µM | Kd (HLA-B*40:02; [15]): 14.1 µM | Kd (HLA-B*44:02 [10]; [15]): 7.44 µM | Kd (HLA-B*44:03; [15]): 1.21 µM | Kd (HLA-B*45:01; [15]): ≥ 70 µM

GEENFSSRMY
Kd (HLA-B*18:01 [8]; [12]): 3.94 µM | Kd (HLA-B*40:01 [9]; [12]): 8.44 µM | Kd (HLA-B*40:02; [12]): 14.2 µM | Kd (HLA-B*44:02 [10]; [12]): 0.0581 µM | Kd (HLA-B*44:03; [12]): 0.0683 µM | Kd (HLA-B*45:01; [12]): 3.21 µM

EDQGNPIVL
Kd (HLA-B*18:01 [8]; [16]): ≥ 52.1 µM | Kd (HLA-B*40:01 [9]; [16]): 4.86 µM | Kd (HLA-B*40:02; [16]): ≥ 24.2 µM | Kd (HLA-B*44:02 [10]; [16]): ≥ 36.6 µM | Kd (HLA-B*44:03; [16]): ≥ 78.1 µM | Kd (HLA-B*45:01; [16]): 14.9 µM

PEIWLQLNT
Kd (HLA-B*18:01 [8]; [13]): ≥ 77.5 µM | Kd (HLA-B*40:01 [9]; [13]): ≥ 76.1 µM | Kd (HLA-B*40:02; [13]): 9.21 µM | Kd (HLA-B*44:02 [10]; [13]): 14.4 µM | Kd (HLA-B*44:03; [13]): 2.35 µM | Kd (HLA-B*45:01; [13]): ≥ 21.1 µM

LEGSVRVVT
Kd (HLA-B*18:01 [8]; [12]): 16.9 µM | Kd (HLA-B*40:01 [9]; [12]): 0.795 µM | Kd (HLA-B*40:02; [12]): 0.0699 µM | Kd (HLA-B*44:02 [10]; [12]): 0.951 µM | Kd (HLA-B*44:03; [12]): 0.986 µM | Kd (HLA-B*45:01; [12]): 0.0591 µM

Source: the Immune Epitope Database (IEDB)
